Assay [1] addresses T1, N11-14:V5:His (Drosophila, UniProt P07207 447-605).
T1 chain: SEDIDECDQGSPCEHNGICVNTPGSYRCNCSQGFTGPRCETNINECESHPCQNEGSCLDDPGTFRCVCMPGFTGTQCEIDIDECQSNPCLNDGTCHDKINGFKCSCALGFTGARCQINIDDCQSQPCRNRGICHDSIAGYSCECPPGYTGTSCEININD
Description: ELISA.

The target of assay [2] is T2, N11-20:V5:His (Drosophila, UniProt P07207 447-832).
T2 chain: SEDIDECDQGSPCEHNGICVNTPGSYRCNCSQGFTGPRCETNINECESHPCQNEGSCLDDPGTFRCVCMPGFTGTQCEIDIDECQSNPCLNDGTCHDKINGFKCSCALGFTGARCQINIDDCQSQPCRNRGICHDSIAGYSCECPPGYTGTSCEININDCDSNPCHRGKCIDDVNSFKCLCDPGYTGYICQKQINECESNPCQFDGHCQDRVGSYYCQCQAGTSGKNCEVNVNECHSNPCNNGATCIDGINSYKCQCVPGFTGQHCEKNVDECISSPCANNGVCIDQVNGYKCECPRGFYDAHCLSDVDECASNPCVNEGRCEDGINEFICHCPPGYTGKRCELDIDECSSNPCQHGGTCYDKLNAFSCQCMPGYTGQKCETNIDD
The assay is described as follows: ELISA. (In general: In an ELISA, binding on a coated surface is turned into a signal by an enzyme label.)

For assay [3], the target named is T3, N11-14spl:V5:His (Drosophila, UniProt P07207 447-605, I578T).
T3 sequence: T1 chain with I132T
The assay is described as follows: ELISA.

Assay [4] deals with T1, N11-14:V5:His. The assay is described as follows: ELISA.
In assay [5] the target is T2, N11-20:V5:His. The assay is described as follows: ELISA; 200 ng His-tagged protein adsorbed to a 96-well plate at 4°C overnight, blocked with 3% BSA; purified Fc fusion added in TBS (10 mM Tris-Cl pH 8.0, 150 mM NaCl, 1 mM CaCl2) for 2 h; detected with HRP anti-human IgG; half-maximal binding ('Kd') fitted with Prizm, said not to be a true Kd.
The target of assay [6] is T2, N11-20:V5:His. Description: ELISA; pH 5.4.
Assay [7] addresses T2, N11-20:V5:His. The assay is described as follows: ELISA.
In assay [8] the target is T2, N11-20:V5:His. Description: ELISA; pH 7.4.
The target of a further assay is T4, N21-30:V5:His (Drosophila, UniProt P07207 827-1224).
T4 construct: source: Drosophila Schneider cells, transfected, secreted; purified from conditioned medium (ProBond resin)
T4 sequence (looked up): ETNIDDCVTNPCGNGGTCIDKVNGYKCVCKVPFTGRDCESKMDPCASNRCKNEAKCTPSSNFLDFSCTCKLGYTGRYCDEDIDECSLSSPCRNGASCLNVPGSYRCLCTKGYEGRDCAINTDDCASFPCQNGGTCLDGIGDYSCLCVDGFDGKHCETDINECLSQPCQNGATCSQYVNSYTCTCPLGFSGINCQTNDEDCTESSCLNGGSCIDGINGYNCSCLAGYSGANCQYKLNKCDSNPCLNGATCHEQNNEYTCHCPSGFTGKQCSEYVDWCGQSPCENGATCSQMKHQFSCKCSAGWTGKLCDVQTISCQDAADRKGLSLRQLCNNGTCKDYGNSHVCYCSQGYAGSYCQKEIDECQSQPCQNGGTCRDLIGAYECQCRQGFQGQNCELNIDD
Description: ELISA; competition: 10 ng (2.74 nM) N21-30:Fc or 100 ng (23.2 nM) Dl:Fc on adsorbed N11-20, with increasing amounts of soluble Dl:V5:His or N21-30:V5:His. Particulars: both partners purified.

Assay [9] has as its target T5, N21-30:Fc (Drosophila, UniProt P07207 827-1224).
T5 construct: also called Abruptex region; EGF repeat 21-30 region of Notch; source: Drosophila Schneider cells, transfected, secreted; purified from conditioned medium (Protein A beads); not shown: Fc (human IgG), C-terminal, kept
T5 sequence (looked up): T4 sequence (looked up)
The description is as above. The settings on record: both partners purified.

The target in assay [10] is T5, N21-30:Fc. The assay is described as follows: ELISA; as the plate assay, at pH 7.4 in citric acid/Na2HPO4 or Tris maleate/NaOH buffer in place of Tris pH 8.0. Particulars: both partners purified.
Assay [11] concerns the target T3, N11-14spl:V5:His. Description: ELISA. This is another data set of the same source.
Assay [12] addresses T1, N11-14:V5:His. The assay is described as follows: ELISA.

Positions count from the first letter of the chain named. In names and notes the source's numbering stands. Where two headings read alike, the source gives them in different places.

B1: N26-30:Fc (Fc fusion)
chain: QTNDEDCTESSCLNGGSCIDGINGYNCSCLAGYSGANCQYKLNKCDSNPCLNGATCHEQNNEYTCHCPSGFTGKQCSEYVDWCGQSPCENGATCSQMKHQFSCKCSAGWTGKLCDVQTISCQDAADRKGLSLRQLCNNGTCKDYGNSHVCYCSQGYAGSYCQKEIDECQSQPCQNGGTCRDLIGAYECQCRQGFQGQNCELNIDD
modifications: Fc-dimerised (Fc left out); secreted from S2 cells, O-fucosylation predicted. The forward primer (Q-T-N-D-E-D-C) overlaps the reverse primer ending at Asp1025, so the printed Gln1000 is Gln1020
For B1, the Kd in the assay with N11-14:V5:His [1] amounted to 2.81 nM.

B2: N21-25:Fc (Fc fusion)
chain: ETNIDDCVTNPCGNGGTCIDKVNGYKCVCKVPFTGRDCESKMDPCASNRCKNEAKCTPSSNFLDFSCTCKLGYTGRYCDEDIDECSLSSPCRNGASCLNVPGSYRCLCTKGYEGRDCAINTDDCASFPCQNGGTCLDGIGDYSCLCVDGFDGKHCETDINECLSQPCQNGATCSQYVNSYTCTCPLGFSGINCQTNDED
With B2, the Kd with N11-20:V5:His [2] was determined as 2.79 nM; in the assay with N11-14:V5:His [1] it was 2.77 nM.

B3: Dl:Fc (Fc fusion)
chain: QVHSSGSFELRLKYFSNDHGRDNEGRCCSGESDGATGKCLGSCKTRFRVCLKHYQATIDTTSQCTYGDVITPILGENSVNLTDAQRFQNKGFTNPIQFPFSFSWPGTFSLIVEAWHDTNNSGNARTNKLLIQRLLVQQVLEVSSEWKTNKSESQYTSLEYDFRVTCDLNYYGSGCAKFCRPRDDSFGHSTCSETGEIICLTGWQGDYCHIPKCAKGCEHGHCDKPNQCVCQLGWKGALCNECVLEPNCIHGTCNKPWTCICNEGWGGLYCNQDLNYCTNHRPCKNGGTCFNTGEGLYTCKCAPGYSGDDCENEIYSCDADVNPCQNGGTCIDEPHTKTGYKCHCANGWSGKMCEEKVLTCSDKPCHQGICRNVRPGLGSKGQGYQCECPIGYSGPNCDLQLDNCSPNPCINGGSCQPSGKCICPAGFSGTRCETNIDDCLGHQCENGGTCIDMVNQYRCQCVPGFHGTHCSSKVDLCLIRPCANGGTCLNLNNDYQCTCRAGFTGKDCSVDIDECSSGPCHNGGTCMNRVNSFECVCANGFRGKQCDE
Consider B3, for which the Kd in the assay with N11-14spl:V5:His [3] was determined as 23.4 nM; in the assay with N11-14:V5:His [4], 16.6 nM; with N11-20:V5:His [6], 4.58 nM; with N11-20:V5:His [7], 25.1 nM; with N11-20:V5:His [8], 29.8 nM. Moreover, in the assay with N11-20:V5:His [5], the EC50 was found to be 1.87 nM.

B4: N11-20:V5:His (domain or fragment, Drosophila, UniProt P07207 447-832, looked up)
chain: T2 chain
notes: also called EGF repeats 11-20 of the N extracellular domain; source: Drosophila Schneider cells, transfected, secreted; purified from conditioned medium (ProBond resin)
As for B4, the binding result in the assay with N21-30:V5:His and in the assay with N21-30:Fc [9] was “binds” each time.

B5: N11-14:V5:His (domain or fragment, Drosophila, UniProt P07207 447-605, looked up)
chain: T1 chain
notes: also called N11-4:V5:His; EGF repeats 11-14; source: Drosophila Schneider cells, transfected, secreted; purified from conditioned medium (ProBond resin)
With B5, the binding result in the assay with N21-30:Fc [10] is reported as “binds”.

B6: N11-14spl:V5:His (domain or fragment, Drosophila, UniProt P07207 447-605, looked up)
chain: T1 chain with I132T
notes: Notch, Drosophila, EGF repeats 11-14 with the I578T change of the split (spl) allele in EGF repeat 14; limits as N11-14, Ser447 to Asp605; also called split mutant; source: Drosophila Schneider cells, transfected, secreted; purified from conditioned medium (ProBond resin)
For B6, the binding result with N21-30:Fc [10] is on record as “binds”.

B7: N21-30:Fc (Fc fusion)
chain: T4 sequence (looked up)
With B7, the Kd in the assay with N11-14spl:V5:His [11] amounted to 28.9 nM; with N11-14:V5:His [12], 21.3 nM; with N11-20:V5:His [6], 34 nM; with N11-20:V5:His [2], 4.5 nM; with N11-14:V5:His [1], 5.42 nM; with N11-20:V5:His [7], 27.5 nM. In the assay with N11-20:V5:His [8], this molecule returned a Kd of 16.4 nM.

B8: N22-27:Fc (Fc fusion)
chain: KMDPCASNRCKNEAKCTPSSNFLDFSCTCKLGYTGRYCDEDIDECSLSSPCRNGASCLNVPGSYRCLCTKGYEGRDCAINTDDCASFPCQNGGTCLDGIGDYSCLCVDGFDGKHCETDINECLSQPCQNGATCSQYVNSYTCTCPLGFSGINCQTNDEDCTESSCLNGGSCIDGINGYNCSCLAGYSGANCQYKLNKCDSNPCLNGATCHEQNNEYTCHCPSGFTGKQCS
B8 displayed a Kd in the assay with N11-14:V5:His [1] of 12.6 nM.

As usually defined, the Kd is the concentration at which binding is half-saturated. High values mean weaker binding, low ones tighter binding. For orientation: EC50 means the concentration needed to bring the measured effect to its halfway point. The low end stands for an effect from little substance, the high end for a need for much substance.

For the origin of these results see PMC2267168, “Competition between Delta and the Abruptex domain of Notch” (BMC Developmental Biology, 2008).
